Calls of active or inactive are those of the source. The calls are words filed in the database; no cut-off is given here.
Key:
[1] = biological target: T1, N6-Methyl-AMP deaminase (Homo sapiens) (UniProt Q6DHV7); test: (§1) Activity of recombinant human ADAL1 expressed in Escherichia coli by UV-spectrophotometry
T1 sequence (whole entry): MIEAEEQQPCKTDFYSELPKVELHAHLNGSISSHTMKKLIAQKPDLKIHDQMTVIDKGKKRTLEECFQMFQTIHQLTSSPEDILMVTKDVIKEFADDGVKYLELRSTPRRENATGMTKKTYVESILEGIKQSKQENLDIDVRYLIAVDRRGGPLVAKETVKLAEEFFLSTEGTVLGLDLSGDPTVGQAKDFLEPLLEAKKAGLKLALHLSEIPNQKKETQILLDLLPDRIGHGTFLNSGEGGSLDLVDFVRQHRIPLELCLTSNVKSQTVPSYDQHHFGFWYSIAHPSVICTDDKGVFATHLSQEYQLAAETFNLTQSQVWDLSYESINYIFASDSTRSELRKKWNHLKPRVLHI

[2] = substrate: C[C@@]1(F)[C@H](O)[C@@H](COP(=O)(O)O)O[C@H]1n1cnc2c(N3CCC3)nc(N)nc21; test: as §1
[3] = substrate: CCOc1nc(N)nc2c1ncn2[C@@H]1O[C@H](COP(=O)(O)O)[C@@H](O)[C@@]1(C)F; test: as §1
[4] = substrate: COc1nc(N)nc2c1ncn2[C@@H]1O[C@H](COP(=O)(O)O)[C@@H](O)[C@H]1O; test: as §1
[5] = substrate: COc1nc(N)nc2c1ncn2[C@@H]1O[C@H](COP(=O)(O)O)[C@@H](O)[C@@]1(C)F; test: as §1
[6] = substrate: COc1nc(N)nc2c1ncn2[C@@H]1O[C@H](COP(=O)(O)O)[C@@H](O)[C@@]1(C)O; test: as §1
[7] = substrate: CC(C)Oc1nc(N)nc2c1ncn2[C@@H]1O[C@H](COP(=O)(O)O)[C@@H](O)[C@@]1(C)F; test: as §1
[8] = substrate: COc1nc(N)nc2c1ncn2[C@H]1C[C@H](O)[C@@H](COP(=O)(O)O)O1; test: as §1
[9] = substrate: O=P(O)(O)OC[C@H]1O[C@@H](n2cnc3c(NC4CCCC4)ncnc32)[C@H](O)[C@@H]1O; test: as §1
[10] = substrate: Nc1nc(NC2CC2)c2ncn([C@H]3C=C[C@@H](COP(=O)(O)O)C3)c2n1; test: as §1
[11] = substrate: CNc1ncnc2c1ncn2[C@@H]1O[C@H](COP(=O)(O)O)[C@@H](O)[C@H]1O; test: as §1
[12] = substrate: Nc1ncnc2c1ncn2[C@@H]1O[C@H](COP(=O)(O)O)[C@@H](O)[C@H]1O; test: as §1
[13] = substrate: Nc1nc(Cl)c2ncn([C@@H]3O[C@H](COP(=O)(O)O)[C@@H](O)[C@H]3O)c2n1; test: as §1
[14] = substrate: C[C@@]1(F)[C@H](O)[C@@H](COP(=O)(O)O)O[C@H]1n1cnc2c(N3CCC3)nc(N)nc21; test: (§2) Kcat/Km ratio of recombinant human ADAL1 expressed in Escherichia coli
[15] = substrate: CCOc1nc(N)nc2c1ncn2[C@@H]1O[C@H](COP(=O)(O)O)[C@@H](O)[C@@]1(C)F; test: as §2
[16] = substrate: COc1nc(N)nc2c1ncn2[C@@H]1O[C@H](COP(=O)(O)O)[C@@H](O)[C@H]1O; test: as §2
[17] = substrate: COc1nc(N)nc2c1ncn2[C@@H]1O[C@H](COP(=O)(O)O)[C@@H](O)[C@@]1(C)F; test: as §2
[18] = substrate: COc1nc(N)nc2c1ncn2[C@@H]1O[C@H](COP(=O)(O)O)[C@@H](O)[C@@]1(C)O; test: as §2
[19] = substrate: CC(C)Oc1nc(N)nc2c1ncn2[C@@H]1O[C@H](COP(=O)(O)O)[C@@H](O)[C@@]1(C)F; test: as §2
[20] = substrate: COc1nc(N)nc2c1ncn2[C@H]1C[C@H](O)[C@@H](COP(=O)(O)O)O1; test: as §2
[21] = substrate: O=P(O)(O)OC[C@H]1O[C@@H](n2cnc3c(NC4CCCC4)ncnc32)[C@H](O)[C@@H]1O; test: as §2
[22] = substrate: Nc1nc(NC2CC2)c2ncn([C@H]3C=C[C@@H](COP(=O)(O)O)C3)c2n1; test: as §2
[23] = substrate: CNc1ncnc2c1ncn2[C@@H]1O[C@H](COP(=O)(O)O)[C@@H](O)[C@H]1O; test: as §2
[24] = substrate: Nc1ncnc2c1ncn2[C@@H]1O[C@H](COP(=O)(O)O)[C@@H](O)[C@H]1O; test: as §2
[25] = substrate: Nc1nc(Cl)c2ncn([C@@H]3O[C@H](COP(=O)(O)O)[C@@H](O)[C@H]3O)c2n1; test: as §2

In the case of `C[C@H](Cn1cnc2c(N)ncnc21)OCP(=O)(O)O`, the Activity [1] is reported as “inactive”.

For `CN1N=C(N)c2cn([C@@H]3O[C@H](COP(=O)(O)O)[C@@H](O)[C@H]3O)c3ncnc1c23`, the Activity [1] was “inactive”.

In the case of `CCOc1nc(N)nc2c1ncn2[C@@H]1O[C@@H]2COP(=O)(O)O[C@H]2[C@@]1(C)F`, the Activity [1] is reported as “inactive”.

For `Nc1nc(=O)[nH]c2c1ncn2[C@@H]1O[C@H](CO)[C@@H](O)[C@H]1O`, the Activity [1] was “inactive”.

In the case of `Nc1ncnc2c1ncn2CCOCP(=O)(O)O`, the Activity [1] is reported as “inactive”.

For `CCOc1nc(N)nc2c1ncn2[C@@H]1O[C@H](COP(=O)(O)OP(=O)(O)OP(=O)(O)O)[C@@H](O)[C@@]1(C)F`, the Activity [1] was “inactive”.

In the case of `Nc1nc(N)c2ncn([C@@H]3O[C@H](CO)[C@@H](O)[C@H]3O)c2n1`, the Activity [1] is reported as “inactive”.

With `Nc1ncnc2c1ncn2[C@@H]1O[C@H](COP(N)(=O)O)[C@@H](O)[C@H]1O` the Activity [1] was “inactive”.

In the case of `C[C@@]1(F)[C@H](O)[C@@H](COP(=O)(O)O)O[C@H]1n1ccc(N)nc1=O`, the Activity [1] is reported as “inactive”.

With `COc1nc(N)nc2c1ncn2[C@@H]1O[C@H](COP(=O)(O)N[C@@H](C)C(=O)O)[C@@H](O)[C@@]1(C)F` the Activity [1] was “inactive”.

`COc1nc(N)nc2c1ncn2[C@@H]1O[C@H](CO)[C@@H](O)[C@@]1(C)F` was tested, and the Activity [1] was “inactive”.

In the case of `CSc1nc(N)nc2c1ncn2[C@@H]1O[C@H](COP(=O)(O)O)[C@@H](O)[C@H]1O`, the Activity [1] is reported as “inactive”.

`Nc1ncnc2c1ncn2[C@@H]1O[C@H](CO)[C@@H](O)[C@H]1O` was tested, and the Activity [1] was “inactive”.

With `COc1nc(N)nc2c1ncn2[C@@H]1O[C@H](CO)[C@@H](O)[C@H]1O` the Activity [1] was “inactive”.

`Nc1nc(=S)c2ncn([C@@H]3O[C@H](COP(=O)(O)O)[C@@H](O)[C@H]3O)c2[nH]1` was tested, and the Activity [1] was “inactive”.

In the case of `Nc1nc(NC2CC2)c2ncn([C@H]3C=C[C@@H](CO)C3)c2n1`, the Activity [1] is reported as “inactive”.

In the case of `O=P(O)(O)OC[C@H]1O[C@@H](n2cnc3c2ncn2ccnc32)[C@H](O)[C@@H]1O`, the Activity [1] is reported as “inactive”.

With `CNc1ncnc2c1ncn2[C@@H]1O[C@H](CO)[C@@H](O)[C@H]1O` the Activity [1] was “inactive”.

With `Nc1ccn([C@H]2C[C@H](O)[C@@H](COP(=O)(O)O)O2)c(=O)n1` the Activity [1] was “inactive”.

For `CCOc1nc(N)nc2c1ncn2[C@@H]1O[C@@H]2CO[P@](=O)(OC(C)C)O[C@H]2[C@@]1(C)F`, the Activity [1] was “inactive”.

For `COc1nc(N)nc2c1ncn2[C@@H]1O[C@H](COP(=O)(O)OP(=O)(O)O)[C@@H](O)[C@@]1(C)F`, the Activity [1] was “inactive”.

For `O=C(O)CC(Nc1ncnc2c1ncn2[C@@H]1O[C@H](COP(=O)(O)O)[C@@H](O)[C@H]1O)C(=O)O` (stereo not given in full), the Activity [1] was “inactive”.

With `CCOc1nc(N)nc2c1ncn2[C@@H]1O[C@H](CO)[C@@H](O)[C@@]1(C)F` the Activity [1] was “inactive”.

With `COc1nc(N)nc2c1ncn2[C@@H]1O[C@H](COP(=O)(N[C@@H](C)C(=O)OC(C)C)Oc2ccccc2)[C@@H](O)[C@@]1(C)F` (stereo not given in full) the Activity [1] was “inactive”.

B1: N6-Methyl-AMP deaminase (Homo sapiens), Q6DHV7 (protein)
chain: MIEAEEQQPCKTDFYSELPKVELHAHLNGSISSHTMKKLIAQKPDLKIHDQMTVIDKGKKRTLEECFQMFQTIHQLTSSPEDILMVTKDVIKEFADDGVKYLELRSTPRRENATGMTKKTYVESILEGIKQSKQENLDIDVRYLIAVDRRGGPLVAKETVKLAEEFFLSTEGTVLGLDLSGDPTVGQAKDFLEPLLEAKKAGLKLALHLSEIPNQKKETQILLDLLPDRIGHGTFLNSGEGGSLDLVDFVRQHRIPLELCLTSNVKSQTVPSYDQHHFGFWYSIAHPSVICTDDKGVFATHLSQEYQLAAETFNLTQSQVWDLSYESINYIFASDSTRSELRKKWNHLKPRVLHI
B1 showed a Km [2] of 8.63 µM, a kcat [2] of 1.55 s⁻¹ and a Km [3] of 25.1 µM. For the same molecule, the kcat [3] was 8.14 s⁻¹, the Km [4] was 5.2 µM and the kcat [4] was 2.33 s⁻¹. The Km [5] was 8.96 µM, the kcat [5] was 5.85 s⁻¹ and the Km [6] was 10.7 µM. For the same molecule, the kcat [6] was 2.36 s⁻¹, the Km [7] was 25.9 µM and the kcat [7] was 7.2 s⁻¹. It also gave a Km [8] of 6 µM, a kcat [8] of 2.92 s⁻¹ and a Km [9] of 14.3 µM. The kcat [9] was 4.24 s⁻¹, the Km [10] was 7.37 µM and the kcat [10] was 1.63 s⁻¹. It also gave a Km [11] of 12.5 µM, a kcat [11] of 1.58 s⁻¹ and a Km [12] of 32.8 µM. The kcat [12] was 0.055 s⁻¹, the Km [13] was 16.3 µM and the kcat [13] was 3.64 s⁻¹. The kcat/Km [14] was 180000 M⁻¹ s⁻¹, the kcat/Km [15] was 320000 M⁻¹ s⁻¹ and the kcat/Km [16] was 450000 M⁻¹ s⁻¹. It also gave a kcat/Km [17] of 650000 M⁻¹ s⁻¹, a kcat/Km [18] of 220000 M⁻¹ s⁻¹ and a kcat/Km [19] of 280000 M⁻¹ s⁻¹. It also gave a kcat/Km [20] of 490000 M⁻¹ s⁻¹, a kcat/Km [21] of 300000 M⁻¹ s⁻¹ and a kcat/Km [22] of 220000 M⁻¹ s⁻¹. It also gave a kcat/Km [23] of 130000 M⁻¹ s⁻¹, a kcat/Km [24] of 1700 M⁻¹ s⁻¹ and a kcat/Km [25] of 223000 M⁻¹ s⁻¹.

Source: ChEMBL document CHEMBL1811779, “Adenosine deaminase-like protein 1 (ADAL1): characterization and substrate specificity in the hydrolysis of N(6)- or O(6)-substituted purine or 2-aminopurine nucleoside monophosphates” (J Med Chem, 2011)
